Data as given in patent US20190055556A1 (Stanford University, published 2019).

T1: brevican (BCAN) (human, UniProt Q96GW7 23-911, limits assumed)
T1 construct: Control protein of the pull-down assay
T1 sequence (looked up): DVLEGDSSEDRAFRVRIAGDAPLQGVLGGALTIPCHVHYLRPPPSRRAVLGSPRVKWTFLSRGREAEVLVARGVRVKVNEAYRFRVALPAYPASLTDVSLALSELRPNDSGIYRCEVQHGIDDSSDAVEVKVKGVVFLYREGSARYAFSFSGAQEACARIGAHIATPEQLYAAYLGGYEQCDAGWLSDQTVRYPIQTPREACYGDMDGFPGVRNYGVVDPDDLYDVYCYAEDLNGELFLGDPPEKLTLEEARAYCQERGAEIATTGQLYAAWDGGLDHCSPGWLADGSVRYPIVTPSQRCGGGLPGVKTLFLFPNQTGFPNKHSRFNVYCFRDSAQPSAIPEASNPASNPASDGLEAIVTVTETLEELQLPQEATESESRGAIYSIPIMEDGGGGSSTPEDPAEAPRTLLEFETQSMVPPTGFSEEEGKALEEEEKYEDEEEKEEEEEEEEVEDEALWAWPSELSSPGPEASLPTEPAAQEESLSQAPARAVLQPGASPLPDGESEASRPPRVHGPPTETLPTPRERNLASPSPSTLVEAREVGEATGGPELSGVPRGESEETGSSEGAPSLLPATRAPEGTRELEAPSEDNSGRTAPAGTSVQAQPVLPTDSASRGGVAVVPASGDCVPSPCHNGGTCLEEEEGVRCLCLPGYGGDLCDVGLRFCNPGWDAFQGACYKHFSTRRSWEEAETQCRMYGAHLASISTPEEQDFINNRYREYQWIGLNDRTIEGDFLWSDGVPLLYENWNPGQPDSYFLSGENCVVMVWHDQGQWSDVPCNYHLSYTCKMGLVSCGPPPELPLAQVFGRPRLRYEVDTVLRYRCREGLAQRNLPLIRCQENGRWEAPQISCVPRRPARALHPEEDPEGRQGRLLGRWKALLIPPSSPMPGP

B1: secreted protein acidic and rich in cysteine (SPARC) (other, human, UniProt P09486 18-303, looked up)
chain: APQQEALPDETEVVEETVAEVTEVSVGANPVQVEVGEFDDGAEETEEEVVAENPCQNHHCKHGKVCELDENNTPMCVCQDPTSCPAPIGEFEKVCSNDNKTFDSSCHFFATKCTLEGTKKGHKLHLDYIGPCKYIPPCLDSELTEFPLRMRDWLKNVLVTLYERDEDNNLLTEKQKLRVKKIHENEKRLEAGDHPVELLARDFEKNYNMYIFPVHWQFGQLDQHPIDGYLSHTELAPLRAPLIPMEHCTTRFFETCDLDNDKYIALDEWAGCFGIKQKDIDKDLVI
notes: Endogenous protein in SVZ hNPC conditioned media
B2: SPARC-like protein 1 (SPARCL1) (other, human, UniProt Q14515 17-664, looked up)
chain: IPTNARLLSDHSKPTAETVAPDNTAIPSLRAEAEENEKETAVSTEDDSHHKAEKSSVLKSKEESHEQSAEQGKSSSQELGLKDQEDSDGHLSVNLEYAPTEGTLDIKEDMSEPQEKKLSENTDFLAPGVSSFTDSNQQESITKREENQEQPRNYSHHQLNRSSKHSQGLRDQGNQEQDPNISNGEEEEEKEPGEVGTHNDNQERKTELPREHANSKQEEDNTQSDDILEESDQPTQVSKMQEDEFDQGNQEQEDNSNAEMEEENASNVNKHIQETEWQSQEGKTGLEAISNHKETEEKTVSEALLMEPTDDGNTTPRNHGVDDDGDDDGDDGGTDGPRHSASDDYFIPSQAFLEAERAQSIAYHLKIEEQREKVHENENIGTTEPGEHQEAKKAENSSNEEETSSEGNMRVHAVDSCMSFQCKRGHICKADQQGKPHCVCQDPVTCPPTKPLDQVCGTDNQTYASSCHLFATKCRLEGTKKGHQLQLDYFGACKSIPTCTDFEVIQFPLRMRDWLKNILMQLYEANSEHAGYLNEKQRNKVKKIYLDEKRLLAGDHPIDLLLRDFKKNYHMYVYPVHWQFSELDQHPMDRVLTHSELAPLRASLVPMEHCITRFFEECDPNKDKHITLKEWGHCFGIKEEDIDENLLF
notes: as for B1
B3: insulin-like growth factor binding protein 2 (IGFBP2) (other, human, UniProt P18065 36-325, looked up)
chain: AEVLFRCPPCTPERLAACGPPPVAPPAAVAAVAGGARMPCAELVREPGCGCCSVCARLEGEACGVYTPRCGQGLRCYPHPGSELPLQALVMGEGTCEKRRDAEYGASPEQVADNGDDHSEGGLVENHVDSTMNMLGGGGSAGRKPLKSGMKELAVFREKVTEQHRQMGKGGKHHLGLEEPKKLRPPPARTPCQQELDQVLERISTMRLPDERGPLEHLYSLHIPNCDKHGLYNLKQCKMSLNGQRGECWCVNPNTGKLIQGAPTIRGDPECHLFYNEQQEARGVHTQRMQ
notes: Control protein of the pull-down assay
B4: pleiotrophin (PTN) (ligand, human, UniProt P21246 33-168, looked up)
chain: GKKEKPEKKVKKSDCGEWQWSVCVPTSGDCGLGTREGTRTGAECKQTMKTQRCKIPCNWKKQFGAECKYQFQAWGECDLNTALKTRTGSLKRALHNAECQKTVTISKPCGKLTKPKPQAESKKKKKEGKKQEKMLD
notes: In the SEC and co-IP experiments this is the endogenous protein in SVZ hNPC conditioned media

Tests used:
Experiment in all cases: co-immunoprecipitation from SVZ hNPC conditioned media, Western blot
[1] = target: B3
Procedure: (§1) To assess the specificity of the pull-down assay, three control proteins also present in SVZ hNPC CM: 78 kDa glucose-regulated protein (GRP78), insulin-like growth factor binding protein 2 (IGFBP2), and brevican (BCAN), were immunoprecipitated and were not found to copurify with any of the four proteins (FIG. 4D).
(§2) Immunoprecipitation reactions were conducted using the Pierce Crosslink Magnetic IP/Co-IP Kit (Thermo Scientific, Waltham, Mass.). 25 μL of Pierce Protein A/G Magnetic Beads per reaction were rinsed and incubated with 5 μg of antibody on a rotating platform for 15 minutes at room temperature. Antibodies used were: mouse anti-pleiotrophin (Santa Cruz Biotechnology, Santa Cruz, Calif.), rabbit anti-SPARC (Santa Cruz Biotechnology, Santa Cruz, Calif.), mouse anti-SPARCL1 (Santa Cruz Biotechnology, Santa Cruz, Calif.), rabbit anti-HSP90B (GeneTex, Irvine, Calif.), rabbit normal IgG (Santa Cruz Biotechnology, Santa Cruz, Calif.), and mouse normal IgG (Santa Cruz Biotechnology, Santa Cruz, Calif.). Beads were rinsed, and subsequently crosslinked to the antibodies using 0.02 mM DSS for 30 minutes at room temperature. Beads were washed and then incubated with a mixed combination of 250 μL neural precursor cell conditioned media and 250 μL IP lysis/wash buffer overnight at 4° C. The following morning, beads were washed, resuspended in Laemmli loading buffer, and boiled at 100° C. for 5 minutes to release the bound antigens from the beads. Samples were loaded immediately onto Western blots for analysis of the bound antigens, or stored at −20° C. for future analysis. For Western blot analysis, 2% of the input conditioned media was loaded, and 5% of the IP bound antigen samples were loaded.

brevican (BCAN) = target: T1, brevican (BCAN)
Procedure: as §1, §2

[2] = target: B2
Procedure: as §1, §2

[3] = target: T2, heat shock protein 90B (HSP90B) (human, UniProt P14625 22-803, limits assumed)
T2 construct: Endogenous protein in SVZ hNPC conditioned media; 'HSP90B' alone is ambiguous
Procedure: as §1, §2

[4] = target: T3, 78 kDa glucose-regulated protein (GRP78) (human, UniProt P11021 19-654)
T3 construct: Control protein of the pull-down assay
Procedure: as §1, §2

T2 sequence (P14625 22-803 limits assumed): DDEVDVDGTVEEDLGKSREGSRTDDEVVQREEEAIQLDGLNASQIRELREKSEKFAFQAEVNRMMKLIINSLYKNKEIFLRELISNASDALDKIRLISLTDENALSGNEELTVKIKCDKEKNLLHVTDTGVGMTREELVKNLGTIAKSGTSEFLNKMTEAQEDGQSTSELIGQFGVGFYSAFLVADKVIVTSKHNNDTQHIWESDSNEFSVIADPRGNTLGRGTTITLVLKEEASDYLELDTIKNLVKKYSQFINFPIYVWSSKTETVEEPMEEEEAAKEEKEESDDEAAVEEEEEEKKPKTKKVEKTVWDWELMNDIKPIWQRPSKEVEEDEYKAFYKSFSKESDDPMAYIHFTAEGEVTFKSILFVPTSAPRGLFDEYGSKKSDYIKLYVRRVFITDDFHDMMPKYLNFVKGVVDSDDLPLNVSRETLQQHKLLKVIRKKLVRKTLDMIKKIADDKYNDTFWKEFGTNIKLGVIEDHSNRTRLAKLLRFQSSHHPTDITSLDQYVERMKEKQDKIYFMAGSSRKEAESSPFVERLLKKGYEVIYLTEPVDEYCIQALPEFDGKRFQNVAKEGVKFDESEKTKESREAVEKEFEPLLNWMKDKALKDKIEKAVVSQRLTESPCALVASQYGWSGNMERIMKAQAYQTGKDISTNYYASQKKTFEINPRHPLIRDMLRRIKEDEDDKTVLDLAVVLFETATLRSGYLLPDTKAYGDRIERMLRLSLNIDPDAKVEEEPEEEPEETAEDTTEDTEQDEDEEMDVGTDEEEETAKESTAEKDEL
T3 sequence (P11021 19-654 limits assumed): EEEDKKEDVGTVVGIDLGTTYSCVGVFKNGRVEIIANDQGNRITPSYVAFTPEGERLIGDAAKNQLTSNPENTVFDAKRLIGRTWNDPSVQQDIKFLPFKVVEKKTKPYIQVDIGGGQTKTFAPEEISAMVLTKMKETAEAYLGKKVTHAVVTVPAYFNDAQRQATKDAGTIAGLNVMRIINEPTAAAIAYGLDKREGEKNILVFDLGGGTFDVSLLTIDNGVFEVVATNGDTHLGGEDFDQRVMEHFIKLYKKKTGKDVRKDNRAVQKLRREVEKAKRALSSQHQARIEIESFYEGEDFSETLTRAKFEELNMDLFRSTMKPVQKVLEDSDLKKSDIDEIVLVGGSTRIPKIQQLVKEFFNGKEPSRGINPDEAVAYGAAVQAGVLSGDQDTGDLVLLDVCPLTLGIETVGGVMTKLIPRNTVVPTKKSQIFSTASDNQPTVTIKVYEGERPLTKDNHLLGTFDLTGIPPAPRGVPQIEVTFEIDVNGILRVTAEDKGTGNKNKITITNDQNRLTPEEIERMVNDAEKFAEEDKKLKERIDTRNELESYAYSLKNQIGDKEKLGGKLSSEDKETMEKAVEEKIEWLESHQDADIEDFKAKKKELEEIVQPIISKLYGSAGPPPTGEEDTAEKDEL

Row | binding result [1] | binding result (brevican (BCAN)) | binding result [2] | binding result [3] | binding result [4] | Binder
1 | no binding | no binding |  |  |  | B1
2 |  | no binding |  |  |  | B2
3 |  |  | no binding | no binding |  | B3
4 | no binding | no binding |  |  | no binding | B4
